Measured values published in the supplement of paper PMC5998384.

Tests used:
[1] = system: HeLa Kyoto; assay: solubility in G1/S (NP-40 vs SDS abundance) (log2 ratio); higher = more soluble; details: cell cycle stage: G1/S
[2] = system: HeLa Kyoto; assay: melting temperature (median over replicates), in situ; higher = more thermally stable
[3] = system: HeLa Kyoto; assay: solubility change mitosis vs G1/S (difference of NP-40 vs SDS log2 ratios) (log2 ratio difference); higher = more soluble in mitosis
[4] = system: HeLa Kyoto; assay: thermal stability score vs G1/S (z-score of summed log2 fold changes over temperatures); higher = more thermally stable than in G1/S
[5] = cell cycle stage: early G1 (4.5 h after nocodazole release)
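For melting temperature (median over replicates), in situ in this document: HeLa Kyoto cells synchronized by double thymidine or nocodazole block, proteins quantified by TMT10plex mass spectrometry, three independent biological replicates.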
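For solubility change mitosis vs G1/S (difference of NP-40 vs SDS log2 ratios) in this document: synchronized HeLa Kyoto cells (double thymidine block for G1/S, nocodazole release for mitosis), protein amounts in NP-40 versus SDS lysates quantified by mass spectrometry, three biological replicates.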
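For solubility in G1/S (NP-40 vs SDS abundance) in this document: HeLa Kyoto cells arrested at G1/S by double thymidine block, proteins quantified by TMT10plex mass spectrometry in mild NP-40 versus SDS extracts, three biological replicates.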
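For thermal stability score vs G1/S (z-score of summed log2 fold changes over temperatures) in this document: synchronized HeLa Kyoto cells, proteins quantified by TMT10plex mass spectrometry, three biological replicates, mitosis taken 0.5 h after nocodazole release, G1/S directly after double thymidine block.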

MEMPLPPDDQELRNVIDKLAQFVARNGPEFEKMTMEKQKDNPKFSFLFGGEFYSYYKCKLALEQQQLICKQQTPELEPAATMPPLPQPPLAPAAPIPPAQGAPSMDELIQQSQWNLQQQEQHLLALRQEQVTAAVAHAVEQQMQKLLEETQLDMNEFDNLLQPIIDTCTKDAISAGKNWMFSNAKSPPHCELMAGHLRNRITADGAHFELRLHLIYLINDVLHHCQRKQARELLAALQKVVVPIYCTSFLAVEEDKQQKIARLLQLWEKNGYFDDSIIQQLQSPALGLGQYQATLINEYSSVVQPVQLAFQQQIQTLKTQHEEFVTSLAQQQQQQQQQQQQLQMPQMEAEVKATPPPPAPPPAPAPAPAIPPTTQPDDSKPPIQMPGSSEYEAPGGVQDPAAAGPRGPGPHDQIPPNKPPWFDQPHPVAPWGQQQPPEQPPYPHHQGGPPHCPPWNNSHEGMWGEQRGDPGWNGQRDAPWNNQPDAAWNSQFEGPWNSQHEQPPWGGGQREPPFRMQRPPHFRGPFPPHQQHPQFNQPPHPHNFNRFPPRFMQDDFPPRHPFERPPYPHRFDYPQGDFPAEMGPPHHHPGHRMPHPGINEHPPWAGPQHPDFGPPPHGFNGQPPHMRRQGPPHINHDDPSLVPNVPYFDLPAGLMAPLVKLEDHEYKPLDPKDIRLPPPMPPSERLLAAVEAFYSPPSHDRPRNSEGWEQNGLYEFFRAKMRARRRKGQEKRNSGPSRSRSRSKSRGRSSSRSNSRSSKSSGSYSRSRSRSCSRSYSRSRSRSRSRSRSSRSRSRSQSRSRSKSYSPGRRRRSRSRSPTPPSSAGLGSNSAPPIPDSRLGEENKGHQMLVKMGWSGSGGLGAKEQGIQDPIKGGDVRDKWDQYKGVGVALDDPYENYRRNKSYSFIARMKARDECK [CHERP]
solubility in G1/S (log2) [1]: -0.174 | melting temperature ([2]; cell cycle stage: G1/S): 47.6 °C | melting temperature ([2]; cell cycle stage: mitosis): 49.2 °C | solubility change mitosis (log2) [3]: 0.513 | thermal stability score [4, 5]: 1.81 | thermal stability score ([4]; cell cycle stage: mitosis): 4.57

MERPPGLRPGAGGPWEMRERLGTGGFGNVCLYQHRELDLKIAIKSCRLELSTKNRERWCHEIQIMKKLNHANVVKACDVPEELNILIHDVPLLAMEYCSGGDLRKLLNKPENCCGLKESQILSLLSDIGSGIRYLHENKIIHRDLKPENIVLQDVGGKIIHKIIDLGYAKDVDQGSLCTSFVGTLQYLAPELFENKPYTATVDYWSFGTMVFECIAGYRPFLHHLQPFTWHEKIKKKDPKCIFACEEMSGEVRFSSHLPQPNSLCSLVVEPMENWLQLMLNWDPQQRGGPVDLTLKQPRCFVLMDHILNLKIVHILNMTSAKIISFLLPPDESLHSLQSRIERETGINTGSQELLSETGISLDPRKPASQCVLDGVRGCDSYMVYLFDKSKTVYEGPFASRSLSDCVNYIVQDSKIQLPIIQLRKVWAEAVHYVSGLKEDYSRLFQGQRAAMLSLLRYNANLTKMKNTLISASQQLKAKLEFFHKSIQLDLERYSEQMTYGISSEKMLKAWKEMEEKAIHYAEVGVIGYLEDQIMSLHAEIMELQKSPYGRRQGDLMESLEQRAIDLYKQLKHRPSDHSYSDSTEMVKIIVHTVQSQDRVLKELFGHLSKLLGCKQKIIDLLPKVEVALSNIKEADNTVMFMQGKRQKEIWHLLKIACTQSSARSLVGSSLEGAVTPQTSAWLPPTSAEHDHSLSCVVTPQDGETSAQMIEENLNCLGHLSTIIHEANEEQGNSMMNLDWSWLTE [CHUK]
solubility in G1/S (log2) [1]: 0.0423 | melting temperature ([2]; cell cycle stage: G1/S): 48.7 °C | melting temperature ([2]; cell cycle stage: mitosis): 49.1 °C | solubility change mitosis (log2) [3]: -0.139 | thermal stability score [4, 5]: 0.418 | thermal stability score ([4]; cell cycle stage: mitosis): 1.15

MMEESGIETTPPGTPPPNPAGLAATAMSSTPVPLAATSSFSSPNVSSMESFPPLAYSTPQPPLPPVRPSAPLPFVPPPAVPSVPPLVTSMPPPVSPSTAAAFGNPPVSHFPPSTSAPNTLLPAPPSGPPISGFSVGSTYDITRGHAGRAPQTPLMPSFSAPSGTGLLPTPITQQASLTSLAQGTGTTSAITFPEEQEDPRITRGQDEASAGGIWGFIKGVAGNPMVKSVLDKTKHSVESMITTLDPGMAPYIKSGGELDIVVTSNKEVKVAAVRDAFQEVFGLAVVVGEAGQSNIAPQPVGYAAGLKGAQERIDSLRRTGVIHEKQTAVSVENFIAELLPDKWFDIGCLVVEDPVHGIHLETFTQATPVPLEFVQQAQSLTPQDYNLRWSGLLVTVGEVLEKSLLNVSRTDWHMAFTGMSRRQMIYSAARAIAGMYKQRLPPRTV [PRRC1]
solubility in G1/S (log2) [1]: 0.495 | melting temperature ([2]; cell cycle stage: G1/S): 58.8 °C | melting temperature ([2]; cell cycle stage: mitosis): 58 °C | solubility change mitosis (log2) [3]: -0.346 | thermal stability score [4, 5]: -1.27 | thermal stability score ([4]; cell cycle stage: mitosis): -1.08

MSGASSSEQNNNSYETKTPNLRMSEKKCSWASYMTNSPTLIVMIGLPARGKTYVSKKLTRYLNWIGVPTKVFNLGVYRREAVKSYKSYDFFRHDNEEAMKIRKQCALVALEDVKAYLTEENGQIAVFDATNTTRERRDMILNFAEQNSFKVFFVESVCDDPDVIAANILEVKVSSPDYPERNRENVMEDFLKRIECYKVTYRPLDPDNYDKDLSFIKVINVGQRFLVNRVQDYIQSKIVYYLMNIHVQPRTIYLCRHGESEFNLLGKIGGDSGLSVRGKQFAQALRKFLEEQEITDLKVWTSQLKRTIQTAESLGVPYEQWKILNEIDAGVCEEMTYAEIEKRYPEEFALRDQEKYLYRYPGGESYQDLVQRLEPVIMELERQGNVLVISHQAVMRCLLAYFLDKGADELPYLRCPLHTIFKLTPVAYGCKVETIKLNVEAVNTHRDKPTNNFPKNQTPVRMRRNSFTPLSSSNTIRRPRNYSVGSRPLKPLSPLRAQDMQEGAD [PFKFB2]
solubility in G1/S (log2) [1]: 0.16 | melting temperature ([2]; cell cycle stage: G1/S): 53.9 °C | melting temperature ([2]; cell cycle stage: mitosis): 53.3 °C | solubility change mitosis (log2) [3]: -0.071 | thermal stability score [4, 5]: 0.139 | thermal stability score ([4]; cell cycle stage: mitosis): 0.693

MSDLRITEAFLYMDYLCFRALCCKGPPPARPEYDLVCIGLTGSGKTSLLSKLCSESPDNVVSTTGFSIKAVPFQNAILNVKELGGADNIRKYWSRYYQGSQGVIFVLDSASSEDDLEAARNELHSALQHPQLCTLPFLILANHQDKPAARSVQEIKKYFELEPLARGKRWILQPCSLDDMDALKDSFSQLINLLEEKDHEAVRM [ARL15]
solubility in G1/S (log2) [1]: 0.118 | melting temperature ([2]; cell cycle stage: mitosis): 53.2 °C | solubility change mitosis (log2) [3]: -0.114 | thermal stability score [4, 5]: -0.792 | thermal stability score ([4]; cell cycle stage: mitosis): 0.438

MEFSSPSREECPKPLSRVSIMAGSLTGLLLLQAVSWASGARPCIPKSFGYSSVVCVCNATYCDSFDPPTFPALGTFSRYESTRSGRRMELSMGPIQANHTGTGLLLTLQPEQKFQKVKGFGGAMTDAAALNILALSPPAQNLLLKSYFSEEGIGYNIIRVPMASCDFSIRTYTYADTPDDFQLHNFSLPEEDTKLKIPLIHRALQLAQRPVSLLASPWTSPTWLKTNGAVNGKGSLKGQPGDIYHQTWARYFVKFLDAYAEHKLQFWAVTAENEPSAGLLSGYPFQCLGFTPEHQRDFIARDLGPTLANSTHHNVRLLMLDDQRLLLPHWAKVVLTDPEAAKYVHGIAVHWYLDFLAPAKATLGETHRLFPNTMLFASEACVGSKFWEQSVRLGSWDRGMQYSHSIITNLLYHVVGWTDWNLALNPEGGPNWVRNFVDSPIIVDITKDTFYKQPMFYHLGHFSKFIPEGSQRVGLVASQKNDLDAVALMHPDGSAVVVVLNRSSKDVPLTIKDPAVGFLETISPGYSIHTYLWRRQ [GBA]
solubility in G1/S (log2) [1]: 0.227 | melting temperature ([2]; cell cycle stage: G1/S): 55.4 °C | melting temperature ([2]; cell cycle stage: mitosis): 55.7 °C | solubility change mitosis (log2) [3]: -0.136 | thermal stability score [4, 5]: -0.371 | thermal stability score ([4]; cell cycle stage: mitosis): 0.189

MTSLTQRSSGLVQRRTEASRNAADKERAAGGGAGSSEDDAQSRRDEQDDDDKGDSKETRLTLMEEVLLLGLKDREGYTSFWNDCISSGLRGCMLIELALRGRLQLEACGMRRKSLLTRKVICKSDAPTGDVLLDEALKHVKETQPPETVQNWIELLSGETWNPLKLHYQLRNVRERLAKNLVEKGVLTTEKQNFLLFDMTTHPLTNNNIKQRLIKKVQEAVLDKWVNDPHRMDRRLLALIYLAHASDVLENAFAPLLDEQYDLATKRVRQLLDLDPEVECLKANTNEVLWAVVAAFTK [GOLPH3]
solubility in G1/S (log2) [1]: 0.434 | melting temperature ([2]; cell cycle stage: G1/S): 51.9 °C | melting temperature ([2]; cell cycle stage: mitosis): 51.5 °C | solubility change mitosis (log2) [3]: -0.137 | thermal stability score [4, 5]: 0.551 | thermal stability score ([4]; cell cycle stage: mitosis): -0.641

MPSPRPVLLRGARAALLLLLPPRLLARPSLLLRRSLSAASCPPISLPAAASRSSMDGAGAEEVLAPLRLAVRQQGDLVRKLKEDKAPQVDVDKAVAELKARKRVLEAKELALQPKDDIVDRAKMEDTLKRRFFYDQAFAIYGGVSGLYDFGPVGCALKNNIIQTWRQHFIQEEQILEIDCTMLTPEPVLKTSGHVDKFADFMVKDVKNGECFRADHLLKAHLQKLMSDKKCSVEKKSEMESVLAQLDNYGQQELADLFVNYNVKSPITGNDLSPPVSFNLMFKTFIGPGGNMPGYLRPETAQGIFLNFKRLLEFNQGKLPFAAAQIGNSFRNEISPRSGLIRVREFTMAEIEHFVDPSEKDHPKFQNVADLHLYLYSAKAQVSGQSARKMRLGDAVEQGVINNTVLGYFIGRIYLYLTKVGISPDKLRFRQHMENEMAHYACDCWDAESKTSYGWIEIVGCADRSCYDLSCHARATKVPLVAEKPLKEPKTVNVVQFEPSKGAIGKAYKKDAKLVMEYLAICDECYITEMEMLLNEKGEFTIETEGKTFQLTKDMINVKRFQKTLYVEEVVPNVIEPSFGLGRIMYTVFEHTFHVREGDEQRTFFSFPAVVAPFKCSVLPLSQNQEFMPFVKELSEALTRHGVSHKVDDSSGSIGRRYARTDEIGVAFGVTIDFDTVNKTPHTATLRDRDSMRQIRAEISELPSIVQDLANGNITWADVEARYPLFEGQETGKKETIEE [GARS]
solubility in G1/S (log2) [1]: 0.0194 | melting temperature ([2]; cell cycle stage: G1/S): 59.4 °C | melting temperature ([2]; cell cycle stage: mitosis): 59.5 °C | solubility change mitosis (log2) [3]: -0.136 | thermal stability score [4, 5]: -2.91 | thermal stability score ([4]; cell cycle stage: mitosis): -2.03

MEQVAEGARVTAVPVSAADSTEELAEVEEGVGVVGEDNDAAARGAEAFGDSEEDGEDVFEVEKILDMKTEGGKVLYKVRWKGYTSDDDTWEPEIHLEDCKEVLLEFRKKIAENKAKAVRKDIQRLSLNNDIFEANSDSDQQSETKEDTSPKKKKKKLRQREEKSPDDLKKKKAKAGKLKDKSKPDLESSLESLVFDLRTKKRISEAKEELKESKKPKKDEVKETKELKKVKKGEIRDLKTKTREDPKENRKTKKEKFVESQVESESSVLNDSPFPEDDSEGLHSDSREEKQNTKSARERAGQDMGLEHGFEKPLDSAMSAEEDTDVRGRRKKKTPRKAEDTRENRKLENKNAFLEKKTVPKKQRNQDRSKSAAELEKLMPVSAQTPKGRRLSGEERGLWSTDSAEEDKETKRNESKEKYQKRHDSDKEEKGRKEPKGLKTLKEIRNAFDLFKLTPEEKNDVSENNRKREEIPLDFKTIDDHKTKENKQSLKERRNTRDETDTWAYIAAEGDQEVLDSVCQADENSDGRQQILSLGMDLQLEWMKLEDFQKHLDGKDENFAATDAIPSNVLRDAVKNGDYITVKVALNSNEEYNLDQEDSSGMTLVMLAAAGGQDDLLRLLITKGAKVNGRQKNGTTALIHAAEKNFLTTVAILLEAGAFVNVQQSNGETALMKACKRGNSDIVRLVIECGADCNILSKHQNSALHFAKQSNNVLVYDLLKNHLETLSRVAEETIKDYFEARLALLEPVFPIACHRLCEGPDFSTDFNYKPPQNIPEGSGILLFIFHANFLGKEVIARLCGPCSVQAVVLNDKFQLPVFLDSHFVYSFSPVAGPNKLFIRLTEAPSAKVKLLIGAYRVQLQ [MPHOSPH8]
solubility in G1/S (log2) [1]: -1.16 | melting temperature ([2]; cell cycle stage: G1/S): 49.3 °C | melting temperature ([2]; cell cycle stage: mitosis): 50 °C | solubility change mitosis (log2) [3]: 0.82 | thermal stability score [4, 5]: 0.43 | thermal stability score ([4]; cell cycle stage: mitosis): 1.88

NUP205
solubility in G1/S (log2) [1]: -0.671 | melting temperature ([2]; cell cycle stage: G1/S): 52.1 °C | melting temperature ([2]; cell cycle stage: mitosis): 48.8 °C | solubility change mitosis (log2) [3]: 0.203 | thermal stability score [4, 5]: -4.5 | thermal stability score ([4]; cell cycle stage: mitosis): -6.17
